The test concerns the target T1, GST-tagged PRMT3 full-length protein (pGEX-PR-FL) (human, UniProt O60678-1 1-531).
T1 construct: Protein arginine methyltransferase 3 (PRMT3), human, full length; pGEX-6P2 vector; the legends mark a degraded GST-PRMT3 band beside the full-length one; also called GST-PRMT3; GST-PRMT3-FL
Briefly: pull-down; 15 µg GST-PRMT3 (wild type or mutant) on Glutathione Sepharose, 15 µg His-tagged AL-FL in solution, with or without 200 µM SAM or SAH; 20 mM HEPES pH 7.5, 150 mM KCl, 0.2 mM DTT, 1 mM EDTA, 10% glycerol; 4 °C, 10 h; blot with His antibody. The note with it: both partners purified.

T1 sequence (O60678 whole entry): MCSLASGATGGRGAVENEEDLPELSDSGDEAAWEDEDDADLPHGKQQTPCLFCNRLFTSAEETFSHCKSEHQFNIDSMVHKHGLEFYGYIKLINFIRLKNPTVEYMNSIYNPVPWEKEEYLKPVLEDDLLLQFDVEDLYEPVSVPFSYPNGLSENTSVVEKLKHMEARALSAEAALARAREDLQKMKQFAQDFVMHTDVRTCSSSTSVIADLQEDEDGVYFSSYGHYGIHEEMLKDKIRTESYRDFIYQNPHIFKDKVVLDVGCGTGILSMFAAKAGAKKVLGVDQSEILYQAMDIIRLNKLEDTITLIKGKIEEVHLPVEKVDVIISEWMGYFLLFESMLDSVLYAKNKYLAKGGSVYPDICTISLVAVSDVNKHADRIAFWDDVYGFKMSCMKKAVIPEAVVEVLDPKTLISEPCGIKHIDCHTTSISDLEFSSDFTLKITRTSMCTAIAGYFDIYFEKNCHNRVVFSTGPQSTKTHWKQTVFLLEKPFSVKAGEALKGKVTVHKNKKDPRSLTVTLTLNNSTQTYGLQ

B1: His-tagged ALDH1A1 full length (pET28a-AL-FL) (enzyme, human, UniProt P00352 1-501, looked up)
chain: MSSSGTPDLPVLLTDLKIQYTKIFINNEWHDSVSGKKFPVFNPATEEELCQVEEGDKEDVDKAVKAARQAFQIGSPWRTMDASERGRLLYKLADLIERDRLLLATMESMNGGKLYSNAYLNDLAGCIKTLRYCAGWADKIQGRTIPIDGNFFTYTRHEPIGVCGQIIPWNFPLVMLIWKIGPALSCGNTVVVKPAEQTPLTALHVASLIKEAGFPPGVVNIVPGYGPTAGAAISSHMDIDKVAFTGSTEVGKLIKEAAGKSNLKRVTLELGGKSPCIVLADADLDNAVEFAHHGVFYHQGQCCIAASRIFVEESIYDEFVRRSVERAKKYILGNPLTPGVTQGPQIDKEQYDKILDLIESGKKEGAKLECGGGPWGNKGYFVQPTVFSNVTDEMRIAKEEIFGPVQQIMKFKSLDDVIKRANNTFYGLSAGVFTKDIDKAITISSALQAGTVWVNCYGVVSAQCPFGGFKMSGNGRELGEYGFHEYTEVKTVTVKISQKNS
notes: Retinal dehydrogenase 1 (ALDH1A1), human, full length; pET28a vector; also called His-tagged AL-FL
As to B1, the binding result is reported as “binds”.

The values are drawn from PMC7835222, “PRMT3 interacts with ALDH1A1 and regulates gene-expression by inhibiting retinoic acid signaling” (Communications Biology, 2021).
